Data taken from article PMC2943039.

Target: PCNA (Proliferating Cell Nuclear Antigen) (UniProt P12004)
Experiment: PCNA-bead pull-down, anti-FEN1 blot
Conditions: reference: wild type, kinase-treated; sites S187

## FEN1 (flap endonuclease 1) (from UniProt P39748) S187A, kinase-treated
  binding against the reference: stronger
